The target in data set [1] is maltose binding protein (MBP).

Residue numbers refer to the chain shown, from its start. Numbers in names are those of the source.

p53, P04637, sequence (P04637 whole entry, looked up): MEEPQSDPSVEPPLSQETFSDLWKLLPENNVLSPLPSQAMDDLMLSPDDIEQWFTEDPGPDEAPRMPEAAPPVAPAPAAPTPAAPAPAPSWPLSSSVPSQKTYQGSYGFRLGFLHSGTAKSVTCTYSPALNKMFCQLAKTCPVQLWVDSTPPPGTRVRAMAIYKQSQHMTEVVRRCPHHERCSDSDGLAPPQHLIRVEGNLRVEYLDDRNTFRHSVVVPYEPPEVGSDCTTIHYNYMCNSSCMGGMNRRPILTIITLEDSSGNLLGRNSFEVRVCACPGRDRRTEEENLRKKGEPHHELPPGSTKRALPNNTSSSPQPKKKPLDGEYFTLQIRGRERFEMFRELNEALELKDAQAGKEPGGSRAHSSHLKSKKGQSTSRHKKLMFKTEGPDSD

B1: GST-CNK (wild type CNK fused to GST, produced in E. coli) (protein)
chain: MLAGLPTSDPGRLITDPRSGRTYLKGRLLGKGGFARCYEATDTETGSAYAVKVIPQSRVAKPHQREKILNEIELHRDLQHRHIVRFSHHFEDADNIYIFLELCSRKSLAHIWKARHTLLEPEVRYYLRQILSGLKYLHQRGILHRDLKLGNFFITENMELKVGDFGLAARLEPPEQRKKTICGTPNYVAPEVLLRQGHGPEADVWSLGCVMYTLLCGSPPFETADLKETYRCIKQVHYTLPASLSLPARQLLAAILRASPRDRPSIDQILRHDFFTKGYTPDRLPISSCVTVPDLTPPNPARSLFAKVTKSLFGRKKKSKNHAQERDEVSGLVSGLMRTSVGHQDARPEAPAASGPAPVSLVETAPEDSSPRGTLASSGDGFEEGLTVATVVESALCALRNCIAFMPPAEQNPAPLAQPEPLVWVSKWVDYSNKFGFGYQLSSRRVAVLFNDGTHMALSANRKTVHYNPTSTKHFSFSVGAVPRALQPQLGILRYFASYMEQHLMKGGDLPSVEEVEVPAPPLLLQWVKTDQALLMLFSDGTVQVNFYGDHTKLILSGWEPLLVTFVARNRSACTYLASHLRQLGCSPDLRQRLRYALRLLRDRSPA
For the protein B1, the “kinase activity (32P-ATP kinase reaction)” value with p53, P04637 was “Wild type GST-CNK phosphorylated p53, maltose binding protein (MBP) and also exhibited autophosphorylation activity”; in data set [1], “Wild type GST-CNK phosphorylated p53, maltose binding protein (MBP) and also exhibited autophosphorylation activity”.

B2: GST-CNK D146A mutant (protein)
chain: B1 chain with D146A
For the protein B2, the “kinase activity (32P-ATP kinase reaction)” value with p53, P04637 is recorded as “The GST-CNK D146A mutant did not exhibit kinase activity”; in data set [1], “The GST-CNK D146A mutant did not exhibit kinase activity”.
